Test results reported in patent US20150018233A1 (FRED HUTCHINSON CANCER RESEARCH CENTER, published 2015).
Numbering of substitutions follows the chain as printed.

B1: Gαs-Gα15-13 (SEQ ID NO: 7) (other)
chain: MGCLGNSKTEDQRNEEKAQREANKKIEKQLQKDKQVYRATHRLLLLGAGESGKSTIVKQMRILHVNGFNGEGGEEDVPDYASNSDGEKATKVQDIKNNLKEAIETIVAAMSNLVPPVELANPENQFRVDYILSVMNVPNFDFPPEFYEHAKALWEDEGVRACYERSNEYQLIDCAQYFLDKIDVIKQADYVPSDQDLLRCRVLTSGIFETKFQVDKVNFHMFDVGGQRDERRKWIQCFNDVTAIIFVVASSSYNMVIREDNQTNRLQEALNLFKSIWNNRWLRTISVILFLNKQDLLAEKVLAGKSKIEDYFPEFARYTTPEDATPEPGEDPRVTRAKYFIRDEFLRISTASGDGRHYCYPHFTCAVDTENIRRVFNDCRDSVLARYLDEINLL
B2: Gαs-Gαi-13 (SEQ ID NO: 5) (other)
chain: MGCLGNSKTEDQRNEEKAQREANKKIEKQLQKDKQVYRATHRLLLLGAGESGKSTIVKQMRILHVNGFNGEGGEEDVPDYASNSDGEKATKVQDIKNNLKEAIETIVAAMSNLVPPVELANPENQFRVDYILSVMNVPNFDFPPEFYEHAKALWEDEGVRACYERSNEYQLIDCAQYFLDKIDVIKQADYVPSDQDLLRCRVLTSGIFETKFQVDKVNFHMFDVGGQRDERRKWIQCFNDVTAIIFVVASSSYNMVIREDNQTNRLQEALNLFKSIWNNRWLRTISVILFLNKQDLLAEKVLAGKSKIEDYFPEFARYTTPEDATPEPGEDPRVTRAKYFIRDEFLRISTASGDGRHYCYPHFTCAVDTENIRRVFNDCRDVIIKNNLKDCGLF
B3: Gαs-Gαz-13 (SEQ ID NO: 6) (other)
chain: B2 chain with K385Q, D390Y, C391I, F394C

Tests used:
[1] = biological target: T1, M2 muscarinic acetylcholine receptor (M2AchR), rat (rat, UniProt P10980 1-466); test: cell-based or functional assay
T1 sequence (looked up): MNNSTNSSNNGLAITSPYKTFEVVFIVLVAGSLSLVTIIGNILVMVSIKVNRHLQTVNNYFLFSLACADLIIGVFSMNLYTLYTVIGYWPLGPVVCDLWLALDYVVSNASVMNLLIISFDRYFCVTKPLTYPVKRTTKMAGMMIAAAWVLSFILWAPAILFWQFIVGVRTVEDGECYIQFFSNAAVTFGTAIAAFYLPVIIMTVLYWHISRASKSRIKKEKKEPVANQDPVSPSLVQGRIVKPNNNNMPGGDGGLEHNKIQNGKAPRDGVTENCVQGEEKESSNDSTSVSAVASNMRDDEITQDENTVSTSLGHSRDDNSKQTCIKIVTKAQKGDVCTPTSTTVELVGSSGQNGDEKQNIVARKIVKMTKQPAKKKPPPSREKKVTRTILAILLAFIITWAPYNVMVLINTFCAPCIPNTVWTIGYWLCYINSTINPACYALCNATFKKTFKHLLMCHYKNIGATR

[2] = biological target: sweet receptor heterodimer (T1 R2/T1 R3); test: cell-based or functional assay

Row | Binder | increase in SEAP activity in response to the 10 uM acetylcholine ligand [1] [fold] | increase in SEAP activity in response to 10 uM acetylcholine (CRE-SEAP reporter, HEK-293) [1] [fold] | increase in SEAP activity, cells transiently expressing the chimera (10 uM acetylcholine) [1] [fold] | increase in SEAP activity (5 mM saccharin) [2] [fold]
1 | B1 | ~2 |  |  | 
2 | B2 |  | 10 | ~10 | ~2
3 | B3 | ~2 |  |  | 
